Data: patent US20030138522A1

Molecular target: wheat extractable xylanolytic enzymes
Assay: cell-based or functional assay

OD (Xylazyme substrate, xylanase activity; 100 µl xylanolytic extract + 100 µl purified inhibitor; control without inhibitor OD 0.8): 0.277 OD
OD (Xylazyme substrate, xylanase activity; 250 µl xylanolytic extract + 100 µl purified inhibitor; control without inhibitor OD 0.867): 0.275 OD
OD (Xylazyme substrate, xylanase activity; 500 µl xylanolytic extract + 100 µl purified inhibitor; control without inhibitor OD 1.031): 0.414 OD
Substance: purified wheat endogenous xylanase inhibitor
